Results: publication PMC3655159

Experiments:
[1] = target: HSV-1 gB ectodomain gB730 (residues 31-730) (HSV-1 (strain KOS)) (UniProt P06437); experiment: SDS-PAGE under mildly denaturing conditions + Western blot
[2] = target: HSV-1 gB ectodomain gB730 (residues 31-730) (HSV-1 (strain KOS)) (UniProt P06437); experiment: SDS-PAGE under mildly denaturing conditions

For “HSV-1 gB ectodomain gB730 (residues 31-730) (from UniProt P06437 31-730) (domain or fragment)”, the stoichiometry N [1] was 3 and the stoichiometry N [2] was 3.
